From patent US20090280480A1

Tests used:
[1] = molecular target: T1, NM, the N-terminal and middle region of Saccharomyces cerevisiae Sup35 (soluble, unpolymerized) (Saccharomyces cerevisiae), P05453; assay: Microcon YM-100 (100 kDa cut off) filtration of fibrillization reactions; details: remark: other sources report otherwise
T1 chain: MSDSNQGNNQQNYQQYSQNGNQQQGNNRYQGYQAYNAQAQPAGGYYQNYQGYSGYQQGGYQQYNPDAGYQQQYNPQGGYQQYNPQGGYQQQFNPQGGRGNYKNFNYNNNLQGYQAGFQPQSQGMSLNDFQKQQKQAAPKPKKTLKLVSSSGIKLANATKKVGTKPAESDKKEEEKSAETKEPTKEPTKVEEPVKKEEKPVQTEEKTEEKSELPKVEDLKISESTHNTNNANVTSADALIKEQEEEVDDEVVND

[2] = molecular target: T1, NM, the N-terminal and middle region of …; assay: quaternary structure analysis of soluble NM; method not named; details: remark: other sources report otherwise

B1: NM, the N-terminal and middle region of Saccharomyces cerevisiae Sup35 (soluble, unpolymerized), P05453 1-253 (protein)
chain: T1 chain
In the case of B1, the percent of total NM in an oligomeric state [1] is reported as 10% and the percent monomeric after dilution out of denaturant [2] is reported as 87%.
